According to paper PMC3194040:

Molecular target: Recombinant full-length His6-tagged DEG7 (Ser206Ala) (Arabidopsis thaliana)
Experiment: SEC

stoichiometry N: 3
Substance: Recombinant full-length His6-tagged DEG7 (Ser206Ala) (enzyme)
